Results as given in patent publication US20110091994A1, “Methods for Screening Compounds for Treating and/or Preventing an Hepatitis C Virus Infection” (priority 2008, published 2011).

B1: HOMER3 (protein, UniProt Q9NSC5 1-361, looked up)
Homer protein homolog 3: MSTAREQPIFSTRAHVFQIDPATKRNWIPAGKHALTVSYFYDATRNVYRIISIGGAKAIINSTVTPNMTFTKTSQKFGQWADSRANTVYGLGFASEQHLTQFAEKFQEVKEAARLAREKSQDGGELTSPALGLASHQVPPSPLVSANGPGEEKLFRSQSADAPGPTERERLKKMLSEGSVGEVQWEAEFFALQDSNNKLAGALREANAAAAQWRQQLEAQRAEAERLRQRVAELEAQAASEVTPTGEKEGLGQGQSLEQLEALVQTKDQEIQTLKSQTGGPREALEAAEREETQQKVQDLETRNAELEHQLRAMERSLEEARAERERARAEVGRAAQLLDVSLFELSELREGLARLAEAAP
B2: GNB2 (protein, UniProt P62879 2-340, looked up)
Guanine nucleotide-binding …: SELEQLRQEAEQLRNQIRDARKACGDSTLTQITAGLDPVGRIQMRTRRTLRGHLAKIYAMHWGTDSRLLVSASQDGKLIIWDSYTTNKVHAIPLRSSWVMTCAYAPSGNFVACGGLDNICSIYSLKTREGNVRVSRELPGHTGYLSCCRFLDDNQIITSSGDTTCALWDIETGQQTVGFAGHSGDVMSLSLAPDGRTFVSGACDASIKLWDVRDSMCRQTFIGHESDINAVAFFPNGYAFTTGSDDATCRLFDLRADQELLMYSHDNIICGITSVAFSRSGRLLLAGYDDFNCNIWDAMKGDRAGVLAGHDNRVSCLGVTDDGMAVATGSWDSFLKIWN
B3: FRMPD4 (protein, UniProt Q14CM0 1-1322, looked up)
FERM and PDZ …: MDVFSFVKIAKLSSHRTKSSGWPPPSGTWGLSQVPPYGWEMTANRDGRDYFINHMTQAIPFDDPRLESCQIIPPAPRKVEMRRDPVLGFGFVAGSEKPVVVRSVTPGGPSEGKLIPGDQIVMINDEPVSAAPRERVIDLVRSCKESILLTVIQPYPSPKSAFISAAKKARLKSNPVKVRFSEEVIINGQVSETVKDNSLLFMPNVLKVYLENGQTKSFRFDCSTSIKDVILTLQEKLSIKGIEHFSLMLEQRTEGAGTKLLLLHEQETLTQVTQRPSSHKMRCLFRISFVPKDPIDLLRRDPVAFEYLYVQSCNDVVQERFGPELKYDIALRLAALQMYIATVTTKQTQKISLKYIEKEWGLETFLPSAVLQSMKEKNIKKALSHLVKANQNLVPPGKKLSALQAKVHYLKFLSDLRLYGGRVFKATLVQAEKRSEVTLLVGPRYGISHVINTKTNLVALLADFSHVNRIEMFSEEESLVRVELHVLDVKPITLLMESSDAMNLACLTAGYYRLLVDSRRSIFNMANKKNTATQETGPENKGKHNLLGPDWNCIPQMTTFIGEGEQEAQITYIDSKQKTVEITDSTMCPKEHRHLYIDNAYSSDGLNQQLSQPGEAPCEADYRSLAQRSLLTLSGPETLKKAQESPRGAKVSFIFGDFALDDGISPPTLGYETLLDEGPEMLEKQRNLYIGSANDMKGLDLTPEAEGIQFVENSVYANIGDVKSFQAAEGIEEPLLHDICYAENTDDAEDEDEVSCEEDLVVGEMNQPAILNLSGSSDDIIDLTSLPPPEGDDNEDDFLLRSLNMAIAAPPPGFRDSSDEEDSQSQAASFPEDKEKGSSLQNDEIPVSLIDAVPTSAEGKCEKGLDNAVVSTLGALEALSVSEEQQTSDNSGVAILRAYSPESSSDSGNETNSSEMTESSELATAQKQSENLSRMFLATHEGYHPLAEEQTEFPASKTPAGGLPPKSSHALAARPATDLPPKVVPSKQLLHSDHMEMEPETMETKSVTDYFSKLHMGSVAYSCTSKRKSKLADGEGKAPPNGNTTGKKQQGTKTAEMEEEASGKFGTVSSRDSQHLSTFNLERTAFRKDSQRWYVATEGGMAEKSGLEAATGKTFPRASGLGAREAEGKEEGAPDGETSDGSGLGQGDRFLTDVTCASSAKDLDNPEDADSSTCDHPSKLPEADESVARLCDYHLAKRMSSLQSEGHFSLQSSQGSSVDAGCGTGSSGSACATPVESPLCPSLGKHLIPDASGKGVNYIPSEERAPGLPNHGATFKELHPQTEGMCPRMTVPALHTAINTEPLFGTLRDGCHRLPKIKETTV
B4: FES (protein, UniProt P07332 1-822, looked up)
Tyrosine-protein kinase …: MGFSSELCSPQGHGVLQQMQEAELRLLEGMRKWMAQRVKSDREYAGLLHHMSLQDSGGQSRAISPDSPISQSWAEITSQTEGLSRLLRQHAEDLNSGPLSKLSLLIRERQQLRKTYSEQWQQLQQELTKTHSQDIEKLKSQYRALARDSAQAKRKYQEASKDKDRDKAKDKYVRSLWKLFAHHNRYVLGVRAAQLHHQHHHQLLLPGLLRSLQDLHEEMACILKEILQEYLEISSLVQDEVVAIHREMAAAAARIQPEAEYQGFLRQYGSAPDVPPCVTFDESLLEEGEPLEPGELQLNELTVESVQHTLTSVTDELAVATEMVFRRQEMVTQLQQELRNEEENTHPRERVQLLGKRQVLQEALQGLQVALCSQAKLQAQQELLQTKLEHLGPGEPPPVLLLQDDRHSTSSSEQEREGGRTPTLEILKSHISGIFRPKFSLPPPLQLIPEVQKPLHEQLWYHGAIPRAEVAELLVHSGDFLVRESQGKQEYVLSVLWDGLPRHFIIQSLDNLYRLEGEGFPSIPLLIDHLLSTQQPLTKKSGVVLHRAVPKDKWVLNHEDLVLGEQIGRGNFGEVFSGRLRADNTLVAVKSCRETLPPDLKAKFLQEARILKQYSHPNIVRLIGVCTQKQPIYIVMELVQGGDFLTFLRTEGARLRVKTLLQMVGDAAAGMEYLESKCCIHRDLAARNCLVTEKNVLKISDFGMSREEADGVYAASGGLRQVPVKWTAPEALNYGRYSSESDVWSFGILLWETFSLGASPYPNLSNQQTREFVEKGGRLPCPELCPDAVFRLMEQCWAYEPGQRPSFSTIYQELQSIRKRHR
B5: FUCA2 (protein, UniProt Q9BTY2 29-467, looked up)
Plasma alpha-L-fucosidase: HSATRFDPTWESLDARQLPAWFDQAKFGIFIHWGVFSVPSFGSEWFWWYWQKEKIPKYVEFMKDNYPPSFKYEDFGPLFTAKFFNANQWADIFQASGAKYIVLTSKHHEGFTLWGSEYSWNWNAIDEGPKRDIVKELEVAIRNRTDLRFGLYYSLFEWFHPLFLEDESSSFHKRQFPVSKTLPELYELVNNYQPEVLWSDGDGGAPDQYWNSTGFLAWLYNESPVRGTVVTNDRWGAGSICKHGGFYTCSDRYNPGHLLPHKWENCMTIDKLSWGYRREAGISDYLTIEELVKQLVETVSCGGNLLMNIGPTLDGTISVVFEERLRQMGSWLKVNGEAIYETHTWRSQNDTVTPDVWYTSKPKEKLVYAIFLKWPTSGQLFLGHPKAILGATEVKLLGHGQPLNWISLEQNGIMVELPQLTIHQMPCKWGWALALTNVI
B6: FIGNL1 (protein, UniProt Q6PIW4 1-674, looked up)
Fidgetin-like protein 1: MQTSSSRSVHLSEWQKNYFAITSGICTGPKADAYRAQILRIQYAWANSEISQVCATKLFKKYAEKYSAIIDSDNVESGLNNYAENILTLAGSQQTDSDKWQSGLSINNVFKMSSVQKMMQAGKKFKDSLLEPALASVVIHKEATVFDLPKFSVCGSSQESDSLPNSAHDRDRTQDFPESNRLKLLQNAQPPMVTNTARTCPTFSAPVGESATAKFHVTPLFGNVKKENHSSAKENIGLNVFLSNQSCFPAACENPQRKSFYGSGTIDALSNPILNKACSKTEDNGPKEDSSLPTFKTAKEQLWVDQQKKYHQPQRASGSSYGGVKKSLGASRSRGILGKFVPPIPKQDGGEQNGGMQCKPYGAGPTEPAHPVDERLKNLEPKMIELIMNEIMDHGPPVNWEDIAGVEFAKATIKEIVVWPMLRPDIFTGLRGPPKGILLFGPPGTGKTLIGKCIASQSGATFFSISASSLTSKWVGEGEKMVRALFAVARCQQPAVIFIDEIDSLLSQRGDGEHESSRRIKTEFLVQLDGATTSSEDRILVVGATNRPQEIDEAARRRLVKRLYIPLPEASARKQIVINLMSKEQCCLSEEEIEQIVQQSDAFSGADMTQLCREASLGPIRSLQTADIATITPDQVRPIAYIDFENAFRTVRPSVSPKDLELYENWNKTFGCGK
B7: IQWD1 (protein, UniProt Q58WW2 1-860, looked up)
DDB1- and CUL4-associated …: MSRGGSYPHLLWDVRKRSLGLEDPSRLRSRYLGRREFIQRLKLEATLNVHDGCVNTICWNDTGEYILSGSDDTKLVISNPYSRKVLTTIRSGHRANIFSAKFLPCTNDKQIVSCSGDGVIFYTNVEQDAETNRQCQFTCHYGTTYEIMTVPNDPYTFLSCGEDGTVRWFDTRIKTSCTKEDCKDDILINCRRAATSVAICPPIPYYLAVGCSDSSVRIYDRRMLGTRATGNYAGRGTTGMVARFIPSHLNNKSCRVTSLCYSEDGQEILVSYSSDYIYLFDPKDDTARELKTPSAEERREELRQPPVKRLRLRGDWSDTGPRARPESERERDGEQSPNVSLMQRMSDMLSRWFEEASEVAQSNRGRGRSRPRGGTSQSDISTLPTVPSSPDLEVSETAMEVDTPAEQFLQPSTSSTMSAQAHSTSSPTESPHSTPLLSSPDSEQRQSVEASGHHTHHQSDNNNEKLSPKPGTGEPVLSLHYSTEGTTTSTIKLNFTDEWSSIASSSRGIGSHCKSEGQEESFVPQSSVQPPEGDSETKAPEESSEDVTKYQEGVSAENPVENHINITQSDKFTAKPLDSNSGERNDLNLDRSCGVPEESASSEKAKEPETSDQTSTESATNENNTNPEPQFQTEATGPSAHEETSTRDSALQDTDDSDDDPVLIPGARYRAGPGDRRSAVARIQEFFRRRKERKEMEELDTLNIRRPLVKMVYKGHRNSRTMIKEANFWGANFVMSGSDCGHIFIWDRHTAEHLMLLEADNHVVNCLQPHPFDPILASSGIDYDIKIWSPLEESRIFNRKLADEVITRNELMLEETRNTITVPASFMLRMLASLNHIRADRLEGDRSEGSGQENENEDEE

How the values were obtained:
[1] = test system: HCV ORFs (Gal4-DB fusions); format: binding, HCV genotype 1b, isolate con1; details: human protein listed by gene symbol; the value names the HCV protein it interacts with
[2] = biological target: T1, HCV ORFs (Gal4-DB fusions) (Hepatitis C virus genotype 1b, UniProt Q9WMX2); format: binding, HCV genotype 1b, isolate con1; details: HCV protein NS3 as bait; human protein as prey
T1 construct: expressed in transfected cells; host or cells: Saccharomyces cerevisiae MAV203 (IMAP1) / AH109 (IMAP2)
T1 sequence (Q9WMX2 1027-1657): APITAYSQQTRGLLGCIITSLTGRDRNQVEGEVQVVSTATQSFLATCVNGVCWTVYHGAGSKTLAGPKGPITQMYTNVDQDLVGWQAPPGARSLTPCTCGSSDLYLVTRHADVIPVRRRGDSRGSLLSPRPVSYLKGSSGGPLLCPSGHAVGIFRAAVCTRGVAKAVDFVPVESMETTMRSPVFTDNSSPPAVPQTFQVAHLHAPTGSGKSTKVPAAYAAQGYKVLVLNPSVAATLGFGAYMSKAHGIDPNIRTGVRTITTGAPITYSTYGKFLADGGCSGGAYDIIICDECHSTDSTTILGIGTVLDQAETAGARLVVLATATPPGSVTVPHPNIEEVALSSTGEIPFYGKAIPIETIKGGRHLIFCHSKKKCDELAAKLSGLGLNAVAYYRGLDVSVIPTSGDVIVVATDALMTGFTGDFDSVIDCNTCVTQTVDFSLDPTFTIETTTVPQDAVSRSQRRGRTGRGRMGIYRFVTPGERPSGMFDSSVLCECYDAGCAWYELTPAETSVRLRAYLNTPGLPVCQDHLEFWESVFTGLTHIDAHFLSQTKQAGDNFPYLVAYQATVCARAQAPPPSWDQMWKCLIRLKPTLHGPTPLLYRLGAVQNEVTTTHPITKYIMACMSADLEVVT

HCV proteins = biological target: T2, HCV proteins (Hepatitis C virus genotype 1b, UniProt Q9WMX2); test: Validation by Y2H pairwise matrices; format: binding; details: validation of interaction with HCV protein NS3;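 also: yeast two-hybrid pairwise tests of interactions first found in Y2H screens of HCV bait proteins against human cDNA libraries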
T2 construct: expressed in transfected cells
T2 sequence (Q9WMX2 1027-1657): as above
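For IMAP Y2H IMAP1 (number of IST) in this document: yeast two-hybrid screens using HCV genotype 1b proteins fused to Gal4-DB as baits against prey cDNA libraries from human spleen and foetal brain, IMAP1 via transformation and IMAP2 via mating.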
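For IMAP Y2H IMAP2 (number of IST) in this document: yeast two-hybrid screens using HCV genotype 1b proteins fused to Gal4-DB as baits against prey cDNA libraries from human spleen and foetal brain, IMAP1 via transformation and IMAP2 via mating.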
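For Interaction with viral protein in this document: yeast two-hybrid screens using HCV genotype 1b proteins fused to Gal4-DB as baits against prey cDNA libraries from human spleen and foetal brain, IMAP1 via transformation and IMAP2 via mating.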

| Molecule | Interaction with viral protein [1] | IMAP Y2H IMAP1 (number of IST) [2] | IMAP Y2H IMAP2 (number of IST) [2] | Y2H matrices (HCV proteins) |
| --- | --- | --- | --- | --- |
| B1 | NS3 | 4 | 1 | + |
| B2 | NS3 | 1 |  | + |
| B3 | NS3 | 1 |  | + |
| B4 | NS3 | 1 |  | + |
| B5 | NS3 | 2 |  | + |
| B6 | NS3 | 1 |  | + |
| B7 | NS3 | 2 |  | + |
